Assay results from patent US5885961A, “Methods of using epithelins to modulate cell proliferation” (Bristol-Myers Squibb Company, priority 1995, dated 1999).
Entries after “also recorded” stand apart in the source; their conditions may differ. Read-outs that look alike come from different tables or passages of the source.

How the values were obtained:
NRK-SA6 cells = experiment: Soft agar colony assay in the presence of TGFβ; type: cell-based, rat; conditions: in the presence of TGFβ 1 ng/ml, FIG. 17
Protocol: FIG. 17. Effect of epithelin 1 and 2 on NRK-SA6 cell colony formation in soft agar in the presence of TFGβ (1 ng/ml). The colony formation assay used is described in Section 6.2.3, infra. Solid bars, epithelin 1; stippled bar, epidermal growth factor; open bar, epithelin 2; hatched bar, 20 ng/ml epithelin 1 plus 500 ng/ml epithelin 2.
A 0.38 ml base layer of 0.5% agar (Agar Noble; Difco Laboratories, Detroit, Mich.) in DMEM containing 10% heat inactivated FBS was added to 24 well Costar tissue culture plates. 0.38 ml of 0.3% agar containing the same medium-FBS mixture, 6-12×10^3 test cells, and the test proteins at various concentrations were overlaid on the basal layer of agar. The plates were incubated at 37° C. in a humidified atmosphere of 5% CO2 in air. Colonies were enumerated unfixed and unstained, and the number of colonies was scored between days 7 and 10. Colonies were defined as a cluster of at least eight cells.

Balb/MK cells [1] = experiment: Murine keratinocyte growth assay (cell count); type: cell-based; conditions: FIG. 16A
Protocol: FIG. 16(A-B). (FIG. 16A) Effect of epithelin 1 and epidermal growth factor (EGF) on the growth of Balb/MK cells. Assays were performed as described in Section 6.2., infra. .circle-solid., epithelin 1; o, EGF (FIG. 16B) Effect of various concentrations of epithelin 2 on the epithelin 1 (20 ng/ml) induced growth of murine keratinocytes.
Balb/MK cells were plated at 1×10^4 cells per well in 1 ml of low calcium medium (Weissman and Aaronson, 1983, Cell 32:599-606; Carpenter and Zendegut, 1985, Anal. Biochem. 153:279-282) in 24-well Costar plates and incubated at 37° C. for 4-6 hours. Then media were removed and replaced with 1 ml of medium containing various concentrations of the test compound in triplicate. The control wells received only medium without any test material. The plates were incubated at 37° C. for 4 days, then medium was removed, wells were rinsed two times with 1 ml of phosphate-buffered saline, and the cells were detached with trypsin-EDTA and counted.

[2] = tested on: A431 human epidermoid carcinoma cells; experiment: Cell growth inhibitory activity (GIA), 125I-deoxyuridine incorporation into DNA; type: cell-based; conditions: for potency relative to epithelin 2 in inhibiting A431 cells: epithelin 1 vs epithelin 2
Protocol: The cell growth inhibitory activity (GIA) assays were performed in flat-bottom 96 well plates (Falcon 3072). Human epidermoid carcinoma of vulva cells (A431) were used as test cells for GIA. 3.5×10^3 cells in 50 μl of test medium (DMEM supplemented with 5% heat inactivated fetal bovine serum (FBS), penicillin/streptomycin (PS) and glutamine) were placed in all wells except peripheral wells. The peripheral wells received 50 μl PBS. Three hours later, 50 μl of test sample in test medium was added to each well, while control wells received only 50 μl of test medium. Three wells were used for each concentration of test sample. Plates were incubated at 37° C. for 2-3 days. Then, 100 μl of a solution of […] (^125 I-IUdR, 4Ci/mg-0.5 mCi/ml, 2 μl/ml in test medium) was added to each well and plates were incubated at 37° C. After 4-6 hours, the medium was aspirated from the wells, which were then washed once with 200 μl PBS. Then, 200 μl methanol was added to each well, plates were incubated for 10 minutes at room temperature, and the methanol was removed by aspiration. 200 μl of 1M sodium hydroxide was added to each well, the plates were incubated for 30 minutes at 37° C. Sodium hydroxide was removed with titertek plugs (Flow Labs). The plugs were transferred into 12×75 mm plastic tubes and counted in a gamma counter to quantify ^125 I-IUdR incorporation.

NRK cells = experiment: Mitogenic activity on NRK cells in monolayer; type: cell-based, rat
mink lung CCL 64 cells = experiment: 125I-deoxyuridine incorporation into DNA, CCL 64; type: cell-based
[3] = tested on: human colon carcinoma cell line HCT 116; experiment: 125I-deoxyuridine incorporation into DNA, HCT 116; type: cell-based; conditions: maximum dose tested: 20 ng/ml epithelin 1, 270 ng/ml epithelin 2
EGF receptors = EGF receptors (Homo sapiens, UniProt P00533); experiment: Binding of 125I-EGF to its receptors
monkey kidney COS1 cells = experiment: 125I-deoxyuridine incorporation into DNA, COS1; type: cell-based
[4] = Resistance of bioactivity to chemical, heat and enzyme treatment; type: physicochemical
Protocol: Epithelin 1 and epithelin 2 are resistant to treatment with 1M acetic acid, 1M ammonium hydroxide, 6M urea, 0.01M sodium metaperiodate, to heating at 56° C. for 30 minutes, and to treatment with various glycosidases or lipases. However, epithelin activity was sensitive to reduction, to reduction and 4-vinylpyridine treatment, and to digestion with proteinases such as trypsin, endoproteinase Lys-C, and endoproteinase Glu-C (V8).

[5] = tested on: human fibroblasts and several other human tumor cells; experiment: 125I-deoxyuridine incorporation into DNA, human fibroblasts and other human tumor cells; type: cell-based; conditions: maximum dose tested: 20 ng/ml epithelin 1, 270 ng/ml epithelin 2
Balb/MK cells [6] = experiment: Growth stimulatory activity (GSA), 125I-deoxyuridine incorporation into DNA of murine keratinocytes; type: cell-based; conditions: FIG. 15A
Protocol: FIG. 15(A-B). (FIG. 15A) Effect of epithelin 1 and epithelin 2 on the stimulation of ^125 I-deoxyuridine incorporation into DNA of the murine keratinocyte cell line Balb/MK. 2,000-4,000 cells were plated per well in 96 well plates in low-calcium medium containing 5% dialyzed FBS. Then GSA assays were performed as described in Section 6.2., infra. .circle-solid., epithelin 1; o, epithelin 2. (FIG. 15B) Effect of various concentrations of epithelin 2 on epithelin 1 (20 ng/ml) elicited incorporation of ^125 I-deoxyuridine into DNA of Balb/MK cells.
Balb/MK cells were also used as indicator cells in 96 well plates to assess the growth inhibitory activity (GIA) or growth stimulatory activity (GSA) of a test material using ^125 I-deoxyuridine incorporation into DNA as described in the previous section.

B1: epithelin precursor: unprocessed 589-residue rat preprotein (SEQ ID NO:2) with 7 cysteine-rich motifs, expressed in COS cells (protein)
chain: MWILVSWLALVARLVAGTQCPDGQFCPVACCLDQGGANYSCCNPLLDTWPIITSRRLDGSCQIRDHCPDGYSCLLTVSGTSSCCPFSEGVSCDDGQHCCPRGFHCSADGKSCSQISDSLLGAVQCPGSQFECPDSATCCIMIDGSWGCCPMPQASCCEDRVHCCPHGASCDLVHTRCISPTGTHPLLKKFPAQRTNRAVAFPFSVVCPDAKTQCPDDSTCCELPTGKYGCCPMPNAICCSDHLHCCPQDTVCDLIQSKCISKDYTTDLMTKLPGYPVNEVKCDLEVSCPDGYTCCRLNTGAWGCCPFTKAVCCEDHIHCCPAGFQCHTETGTCELGVLQVPWMKKVTASLSLPDPQILKNDVPCDDFSSCPSNNTCCRLSSGDWGCCPIPEAVCCLDHQHCCPQGFKCMDEGYCQKGDRMVAGLEKMPVRQTTLLQHGDIGCDQHTSCPVGQTCCPSLKGSWACCQLPHAVCCEDRQHCCPAGYTCNVKARTCEKDAGSVQPSMDLTFGSKVGNVECGAGHFCHDNQSCCKDSQGGWACCPYVKGVCCRDGRHCCPIGFHCSAKGTKCLRKKTPRWDILLRDPAPRPLL
anchorage-independent growth (colony formation in soft agar) of NRK cells (NRK-SA6 cells): no activity
effect on growth of Balb/MK cells (rodent keratinocytes) (Balb/MK cells [1]): no activity
effect on A431 cells [2]: no activity

B2: epithelin 1: single chain polypeptide of 56 amino acid residues, 12 cysteines, purified from rat kidney; also expressed recombinantly in COS cells (protein)
chain: LPGYPVNEVKCDLEVSCPDGYTCCRLNTGAWGCCPFTKAVCCEDHIHCCPAGFQCHTETGTCEL
mitogenic activity on NRK cells in monolayer (NRK cells): exhibited mitogenic activity
anchorage-independent growth (colony formation in soft agar) of NRK cells (NRK-SA6 cells): induced the anchorage-independent growth of NRK cells in a dose-dependent manner; also recorded: can induce anchorage-independent growth
effect on 125I-deoxyuridine incorporation into DNA (mink lung CCL 64 cells): significantly inhibited
effect on growth of HCT 116 cells [3]: slighly inhibited
effect on binding of 125I-EGF to its receptors (EGF receptors): Neither epithelin 1 nor epithelin 2 significantly affected the binding
effect on 125I-deoxyuridine incorporation into DNA (monkey kidney COS1 cells): significantly inhibited
resistance to 1M acetic acid, 1M ammonium hydroxide, 6M urea, 0.01M sodium metaperiodate, heating at 56° C. for 30 minutes, glycosidases or lipases [4]: stable
sensitivity of activity to reduction, reduction and 4-vinylpyridine treatment, and proteinases (trypsin, Lys-C, Glu-C) [4]: sensitive
resistance to 1M acetic acid, 1M ammonium hydroxide, 6M urea, 0.01M sodium metaperiodate, heating at 56° C. for 30 minutes, glycosidases or lipases ([4]; listed as Epithelin 1): resistant
effect on growth of Balb/MK cells (rodent keratinocytes) (Balb/MK cells [1]): did not proliferate in the absence of EGF or epithelin 1
effect on human fibroblasts and several other human tumor cells [5]: Neither protein exhibited any significant effect
effect on 125I-deoxyuridine incorporation into DNA of Balb/MK cells (Balb/MK cells [6]): stimulated the ^125 I-deoxyuridine incorporation in a dose-dependent manner
effect on A431 cells [2]: inhibitory effect
50% inhibition of DNA synthesis (125I-deoxyuridine incorporation) ([2]; A431 cells, purified protein, FIG. 14): 12.8 ng/well
IC50 ([2]; A431 cells, read-out: concentration for 50% inhibition of 125I-deoxyuridine incorporation): ~21 nM
potency relative to epithelin 2 in inhibiting A431 cells [2]: ~36 times
potency relative to epithelin 2 in inhibiting A431 cells ([2]; listed as Epithelin 1): about 36 times
Specific Activity ([2]; final purification step Anal. Tsk-250, pool 1b): 20,609 Units/mg
Specific Activity ([2]; final purification step Anal. Tsk-250, pool 2b): 21,048 Units/mg
specific activity of purified protein (GIA) ([2]; one unit = amount inhibiting 125I-deoxyuridine incorporation into A431 cells by 50%): about 2.1×10^4 units/mg protein
calculated specific activity relative to epithelin 2 ([2]; purified proteins): ten
growth inhibitory activity secreted by transfected COS cells ([2]; recombinant, supernatant of cβrEPN1 transfection partially purified on TSK-250, A431 cells): approximately 25 GIA units/100 mm plate
